# Patent US20210395381A1 (OSSIANIX, published 2021)
# Experiments:
# [1] = molecular target: T1, recombinant human TfR-1 (human, UniProt P02786 89-760); assay: ELISA titration, large-scale purified VNAR-hFc
# T1 construct: extracellular domain; also called hTfR1; human transferrin receptor-1
# [2] = molecular target: T2, recombinant mouse TfR-1 (mouse, UniProt Q62351 89-763); assay: ELISA titration, large-scale purified VNAR-hFc
# T2 construct: Bought recombinant protein; also called mTfR1
# T2 sequence (Q62351 89-763 limits assumed): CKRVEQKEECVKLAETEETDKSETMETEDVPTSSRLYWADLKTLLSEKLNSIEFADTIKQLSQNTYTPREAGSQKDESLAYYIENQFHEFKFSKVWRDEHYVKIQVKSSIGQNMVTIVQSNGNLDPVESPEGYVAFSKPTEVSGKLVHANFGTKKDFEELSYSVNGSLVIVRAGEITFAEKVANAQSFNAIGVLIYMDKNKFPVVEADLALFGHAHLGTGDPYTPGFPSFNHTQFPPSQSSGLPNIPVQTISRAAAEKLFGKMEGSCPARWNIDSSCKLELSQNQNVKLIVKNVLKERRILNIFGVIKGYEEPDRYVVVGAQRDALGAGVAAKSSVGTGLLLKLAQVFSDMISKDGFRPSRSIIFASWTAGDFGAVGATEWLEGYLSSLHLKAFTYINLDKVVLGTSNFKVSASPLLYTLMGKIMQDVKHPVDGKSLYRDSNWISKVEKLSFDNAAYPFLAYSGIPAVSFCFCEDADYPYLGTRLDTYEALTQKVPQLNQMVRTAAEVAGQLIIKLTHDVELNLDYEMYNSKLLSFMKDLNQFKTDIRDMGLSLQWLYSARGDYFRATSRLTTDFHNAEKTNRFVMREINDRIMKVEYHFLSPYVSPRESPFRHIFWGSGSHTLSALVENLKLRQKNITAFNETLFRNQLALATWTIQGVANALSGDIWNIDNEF
# T1 sequence (P02786 89-760): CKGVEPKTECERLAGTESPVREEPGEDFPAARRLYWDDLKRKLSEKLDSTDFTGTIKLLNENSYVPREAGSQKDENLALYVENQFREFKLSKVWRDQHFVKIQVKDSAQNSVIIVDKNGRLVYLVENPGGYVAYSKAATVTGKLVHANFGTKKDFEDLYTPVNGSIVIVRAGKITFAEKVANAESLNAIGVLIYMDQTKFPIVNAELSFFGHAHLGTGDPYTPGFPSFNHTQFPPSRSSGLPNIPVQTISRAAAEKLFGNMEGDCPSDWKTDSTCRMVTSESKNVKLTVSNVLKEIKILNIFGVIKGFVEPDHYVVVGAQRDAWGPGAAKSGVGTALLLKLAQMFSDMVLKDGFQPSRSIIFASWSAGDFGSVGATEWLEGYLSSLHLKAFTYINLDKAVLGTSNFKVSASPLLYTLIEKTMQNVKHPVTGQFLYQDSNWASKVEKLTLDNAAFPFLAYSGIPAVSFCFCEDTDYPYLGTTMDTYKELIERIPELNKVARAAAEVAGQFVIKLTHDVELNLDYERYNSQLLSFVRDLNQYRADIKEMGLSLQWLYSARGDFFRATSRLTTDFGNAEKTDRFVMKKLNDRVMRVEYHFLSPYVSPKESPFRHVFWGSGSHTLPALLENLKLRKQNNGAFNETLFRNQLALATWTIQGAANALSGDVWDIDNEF
binder,measurement,setting,value
"Clone 8.5 VNAR-hFc fusion (Fc fusion, human, not shown: small tags and cut ends, domain: Fc (CH2 and CH3); also called the variant) chain (part 1 of 2): ARVDQTPQTITKETGESLTINCVLRDSNCALPSTYWYRKKSGSTNEESISKGGRYVETVNSGSKSFSLRINDLTVEDSGTYRCKVIAQLGWWLRGCNYRKHDVYGDGTAVTVNA chain (part 2 of 2): DKTHTCPPCPAPPVAGPSVFLFPPKPKDTLMISRTPEVTCVVVDVSHEDPEVKFNWYVDGVEVHNAKTKPREEQYNSTYRVVSVLTVLHQDWLNGKEYKCKVSNKGLPSSIEKTISKAKGQPREPQVYTLPPSRDELTKNQVSLTCLVKGFYPSDIAVEWESNGQPENNYKTTPPVLDSDGSFFLYSKLTVDKSRWQQGNVFSCSVMHEALHNHYTQKSLSLSPGK",EC50,[1],27 nM
same,fold difference of EC50 against parental Clone 8,[1],> 25 fold
same,EC50,[2],47 nM
same,fold difference of EC50 against parental Clone 8,[2],> 25 fold
